Blank lines part the entries; values can stand above or below the binder they belong to.
Biological target: T1, Rat tail type I telo-collagen (rat, UniProt P02454 152-1207; P02466 86-1125)
T1 construct: Type I collagen alpha-1 chain, rat tail telo-collagen; Type I collagen alpha-2 chain, rat tail telo-collagen; Extracted from tissue; Telopeptides are kept (telo-collagen); also called type I collagen; full-length collagen; source: bought: Corning (rat tail)
Assay: ELISA; solid-phase binding assay: proteoglycan or versican domain coated on a 96-well plate (0.25 ug/ml; 0.05-1 ug/ml in Fig. 2A) at 4 C overnight, blocked with 3% BSA in TTBS or casein; rat tail type I collagen 0.1-5 ug/ml in 1% BSA/PBS overnight at RT; detected with biotin-conjugated anti-collagen I antibody, streptavidin-HRP and TMB; Kd from Scatchard plot
Settings: both partners purified

T1 sequence (P02454 152-1207, chain 1 of 2): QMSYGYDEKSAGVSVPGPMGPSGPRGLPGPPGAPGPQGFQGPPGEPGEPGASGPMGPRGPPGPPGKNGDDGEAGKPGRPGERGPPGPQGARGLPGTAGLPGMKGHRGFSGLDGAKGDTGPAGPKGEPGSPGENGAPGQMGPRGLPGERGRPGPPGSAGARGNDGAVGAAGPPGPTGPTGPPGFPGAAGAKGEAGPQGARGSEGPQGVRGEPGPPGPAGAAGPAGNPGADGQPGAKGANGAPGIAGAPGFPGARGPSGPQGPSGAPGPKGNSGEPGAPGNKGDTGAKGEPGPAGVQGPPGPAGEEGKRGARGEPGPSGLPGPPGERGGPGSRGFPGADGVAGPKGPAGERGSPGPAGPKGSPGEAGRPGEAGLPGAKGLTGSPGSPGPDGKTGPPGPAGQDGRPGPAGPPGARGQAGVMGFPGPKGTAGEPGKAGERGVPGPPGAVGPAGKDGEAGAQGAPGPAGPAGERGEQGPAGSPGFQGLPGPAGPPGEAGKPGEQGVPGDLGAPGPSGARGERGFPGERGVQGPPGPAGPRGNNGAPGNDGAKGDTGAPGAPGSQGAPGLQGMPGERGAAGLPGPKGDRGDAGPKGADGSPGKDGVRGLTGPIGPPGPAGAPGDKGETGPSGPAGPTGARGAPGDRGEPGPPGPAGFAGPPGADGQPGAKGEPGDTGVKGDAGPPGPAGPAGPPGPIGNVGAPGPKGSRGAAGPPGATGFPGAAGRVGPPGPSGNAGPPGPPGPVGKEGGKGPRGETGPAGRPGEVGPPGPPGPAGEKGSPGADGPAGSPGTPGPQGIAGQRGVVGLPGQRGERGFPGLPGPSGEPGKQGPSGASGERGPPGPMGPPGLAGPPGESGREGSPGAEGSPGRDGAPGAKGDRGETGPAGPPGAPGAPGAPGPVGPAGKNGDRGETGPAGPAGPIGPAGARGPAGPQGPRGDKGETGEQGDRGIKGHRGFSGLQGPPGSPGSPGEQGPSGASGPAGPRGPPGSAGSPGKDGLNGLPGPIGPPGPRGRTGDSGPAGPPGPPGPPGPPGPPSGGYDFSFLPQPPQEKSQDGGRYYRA
T1 sequence (P02466 86-1125, chain 2 of 2): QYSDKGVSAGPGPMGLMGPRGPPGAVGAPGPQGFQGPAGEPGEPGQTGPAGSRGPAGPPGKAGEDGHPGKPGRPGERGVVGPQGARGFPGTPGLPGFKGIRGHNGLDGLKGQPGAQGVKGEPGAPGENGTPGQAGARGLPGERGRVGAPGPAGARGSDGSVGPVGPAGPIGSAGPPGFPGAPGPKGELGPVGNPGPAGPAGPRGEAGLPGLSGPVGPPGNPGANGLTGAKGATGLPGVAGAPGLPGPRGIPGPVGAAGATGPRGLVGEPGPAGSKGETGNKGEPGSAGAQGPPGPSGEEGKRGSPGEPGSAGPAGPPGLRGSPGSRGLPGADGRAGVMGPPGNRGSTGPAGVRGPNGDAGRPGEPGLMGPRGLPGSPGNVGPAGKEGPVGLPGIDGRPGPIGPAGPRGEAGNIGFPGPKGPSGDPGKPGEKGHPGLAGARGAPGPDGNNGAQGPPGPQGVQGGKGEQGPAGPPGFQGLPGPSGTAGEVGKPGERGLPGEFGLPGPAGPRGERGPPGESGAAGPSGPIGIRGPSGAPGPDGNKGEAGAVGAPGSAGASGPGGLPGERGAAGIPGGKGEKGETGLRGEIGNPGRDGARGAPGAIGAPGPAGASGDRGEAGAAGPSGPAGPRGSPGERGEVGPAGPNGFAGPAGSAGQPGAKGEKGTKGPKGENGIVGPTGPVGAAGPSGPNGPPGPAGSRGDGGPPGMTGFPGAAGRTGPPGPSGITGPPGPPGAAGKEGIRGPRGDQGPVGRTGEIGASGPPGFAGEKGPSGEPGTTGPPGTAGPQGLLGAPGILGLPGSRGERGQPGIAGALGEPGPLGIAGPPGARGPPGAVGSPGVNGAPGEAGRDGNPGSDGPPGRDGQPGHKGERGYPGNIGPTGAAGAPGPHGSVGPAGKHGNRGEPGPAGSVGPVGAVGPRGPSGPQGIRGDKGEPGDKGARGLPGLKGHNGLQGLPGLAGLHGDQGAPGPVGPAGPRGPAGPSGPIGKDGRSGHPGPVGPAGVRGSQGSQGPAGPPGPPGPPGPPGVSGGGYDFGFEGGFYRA

- Kd: 0.7 nM
B1: Recombinant human versican isoform V3 (natural protein)
chain: not shown
notes: Versican isoform V3, human; contains only the N-terminal G1 and C-terminal G3 domains and lacks the GAG domains; also called V3 isoform; source: bought: R&D Systems

- Kd: 3.2 nM
B2: Recombinant human versican G3 domain (domain or fragment)
chain: not shown

- Kd: 0.9 nM
B3: Recombinant human versican G1 domain (domain or fragment)
chain: not shown
modifications: Limits taken by convention: mature N-terminus through Ig-like V, Link 1 and Link 2 (Abcam ab152303 limits not given); tag omitted

Source: PMC11626796, “Versican binds collagen via its G3 domain and regulates the organization and mechanics of collagenous matrices” (The Journal of Biological Chemistry, 2024)
